According to PMC9391438, “Structures of L-BC virus and its open particle provide insight into Totivirus capsid assembly” (Communications Biology, 2022):

Molecular target: the molecule itself
Assay: cryo-EM structure; L-BC particles purified from yeast, vitrified in 20 mM Tris-HCl pH 7.5, 50 mM KCl, 10 mM MgCl2; empty particle 2.9 Å and virion 3.7 Å (icosahedral symmetry), open particle 10 Å (C5) and 12 Å (C1)

B1: L-BC virus capsid protein (Saccharomyces cerevisiae virus L-BCLa) (natural protein)
chain: MSSLLNSLLPEYFKPKTNLNINSSRVQYGFNARIDMQYEDDSGTRKGSRPNAFMSNTVAFIGNYEGIIVDDIPILDGLRADIFDTHGDLDMGLVEDALSKSTMIRRNVPTYTAYASELLYKRNLTSLFYNMLRLYYIKKWGSIKYEKDAIFYDNGHACLLNRQLFPKSRDASLESSLSLPEAEIAMLDPGLEFPEEDVPAILWHGRVSSRATCILGQACSEFAPLAPFSIAHYSPQLTRKLFVNAPAGIEPSSGRYTHEDVKDAITILVSANQAYTDFEAAYLMLAQTLVSPVPRTAEASAWFINAGMVNMPTLSCANGYYPALTNVNPYHRLDTWKDTLNHWVAYPDMLFYHSVAMIESCYVELGNVARVSDSDAINKYTFTELSVQGRPVMNRGIIVDLTLVAMRTGREISLPYPVSCGLTRTDALLQGTEIHVPVVVKDIDMPQYYNAIDKDVIEGQETVIKVKQLPPAMYPIYTYGINTTEFYSDHFEDQVQVEMAPIDNGKAVFNDARKFSKFMSIMRMMGNDVTATDLVTGRKVSNWADNSSGRFLYTDVKYEGQTAFLVDMDTVKARDHCWVSIVDPNGTMNLSYKMTNFRAAMFSRNKPLYMTGGSVRTIATGNYRDAAERLRAMDETLRLKPFKITEKLDFRVAAYAIPSLSGSNMPSLHHQEQLQISEVDAEPINPIGEDELPPDIE
notes: Capsid protein of Saccharomyces cerevisiae virus L-BCLa (L-BC), as found in virus particles from yeast; genome NC_001641.1; the model has 1316 resolved residues for the two copies (A and B) of the icosahedral asymmetric unit; The same chain takes two conformations (A and B) in the capsid; no density for it was resolved; also called A subunit; B subunit
With B1 the “stoichiometry N” value was 120.
